Results as given in the supplement of paper PMC12636428.

Test system: Saccharomyces cerevisiae
Experiment: transcriptional activation domain activity (GFP:mCherry ratio, weighted mean of sorted bins, harmonized to initial dataset scale) (arbitrary fluorescence ratio units); higher = stronger transcriptional activation
Conditions: beta-estradiol 1 µM; induction time 4 h
How it was run: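 Barcoded tiles were sequenced after cells were sorted into 8 bins by GFP:mCherry ratio. Before sorting, cultures had been diluted 1:5 into SC with 1 uM beta-estradiol and held for 4 hours at 30 °C. The tiles were fused to an estradiol-inducible synthetic transcription factor and integrated at URA3 in yeast diploids carrying a GFP reporter. Activation activity is the read-weighted mean of bin median fluorescence, averaged over barcodes and linearly mapped onto the initial dataset scale, and tiles under 50 reads were left out.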

Point of comparison: “AIAEYKWVHLKKGAELTLIDVYDGCTRGLSGFSLTIRAMHFDFVLLVAFLFHL”, “transcriptional activation domain activity” value 50400. Against it:
- LFYLLLLYYYYYCTILYILLHIHYIYIIYLFFLFVYSIYLFFFYILLFIIYYS — higher, 52300
- WGRKGRGKSPLYDFDVNEFDPQVLFSTGTRTVEFMDDQNQPSSASAFLSTARP — lower, 49300
- ETVLKDLKSNQNIDTTVQKLFANCLFYARRIALIHPNLTSIKALLLLMVALEC — higher, 81600
- FIHLMNMTQVVVLCIHRFVYGLVPLFEITTCAFWPLLVSLWHLTYLLFYAIMF — higher, 64100
- FSFGLLFWFLFLFLFLLLFVFLFWSFGFVLLLVLVLFLCSFLLFMFGFWFSSG — lower, 47100
- MLLSLGPVLFSFGHPPLIHLCLVPHPVFFSYPFSLLFISPISSLDYFCFSFPF — lower, 45400
- MVTVGILHYLLIGNLLTNVLFGVYVQMAWKCSCIFYRKYQMGQVHSYHLFSFI — higher, 80900
- VYKRKILVLIYKIAHLTDLYLEVANGGPKLRLHLSALSFHTCAWKSKGLSIPE — lower, 35900
- DLLAHCKRELVHAIWTLLLDDVFLHAYKYGMVVRCADGVEQRIYPRIFTYSAD — lower, 41200
- MHFFSFFFLCFYFYFLSSLLGSMDYTALYFPFFFCSNYRRCYMCFLVEPFFFL — higher, 78500
- EDEEESSKEETEKQRNKLRELIYEFIAKDVASRVELAKYWLSEEWNCAVGPQT — lower, 35300
- MYYCLFFFFVSFCISLCFFYYYSQLCFFSTSFFAVSRGFFFISLSFLVCVWTI — higher, 57300
- MCFEFHPFSTSMFYLLSILFLDLSFWLSFYFFMSIVHSVALEFLFVFSLNFFV — lower, 42600
- ICIPLPFQTLVCSHIVLTPLFYPLFCTPLDIFYVSNYSCLVLVLSLPFHFFLH — lower, 39400
- PLLVLSKRLHSIFMLRCFNDCFAVLGLWLAIFCYQRDQWHLGSFFYSTGLNVK — higher, 71500
- CYNLNLVFNWIIRCIISIFLVFMISFLPLFLQELVECGTWKAIWCLMKQFTSL — lower, 35400
- MLLHLLPILCPDCIFSASITFAVLSFLLSPCPLLPFSLLPLLCFFISIILRSV — lower, 42100
- EGLYKCRYGSYFIELSRYSFFFAMFLFFLRAGWYPFSAFWLGCFWHQLVFTAH — lower, 40800
- LWQYMEFRIMIYLFLALCFIPISIFVIFCSCLSSILFMISAGIWIFFGTIAFL — higher, 51200
- YTYLSNAQLILSICSLYSCSPYLDPYMLLPLLRWAFLYVFLLVLAFAAVLFSA — lower, 41800
- NLCELIYLDRLCGCCLFSMRSVVFIDLLSTLIQPVTVVYIVYLIYLVAANGAT — lower, 28000
- MPDVWLSWLVLSFAPSPPFHHFLWFWFCLIAWFIFFRPITWTFDTLFWFLFLP — lower, 43400
- SKDARETNPEGEEIEKQRRKKRSREEKEDNERSSRKRRSSRSRSPRRQKEKAN — lower, 30900
- CYWKAKAPPYVLPMLILSKRLHSIFVLRCFNDCFAVLFLWLAILCLQRRSWQL — higher, 67900
- MNLDTSPDFVHFFLGFTGGVSILDLYCLFMYTFFDMIQLQLNPFSDFFFPFSL — higher, 62100
- SASSKNGDKPKTVRKKGGEPEVSKESTPKPRTTARNRKGAKQEEAKNKTITGR — lower, 41300
- AIFMSDGSQALCRLIYLIGIATRFFGLSMMLCIVVDVLNLVTFYLNVFYLIQW — lower, 47500
- RGDTAAPGAEDDVELHYVCFVKGGDGRLWELDGRRKGPLERGRLGEGEDVLSE — lower, 27800
- AAKMAREYKKGERQAGRMRTEKGERGEEDGREREGTRRRREKEKEKNKEKGPR — lower, 46000
- MFCLRSWIPVLFFLLRTHASPVYLVLFISATYFLNRPCVYCSLLLFILVVALF — higher, 84400
- IGSYYGKHELYEEVRAQDKILYCTLVLPFVYFLMFLWIWYYLYCFRFFGFFYA — lower, 22000
- VCKLLRLETLRWIFREFHWKLHLRKRFLPYHLLTYMRTLRITANNSIKHLSFN — lower, 41000
- CLRYSLLLVSLGLGAEGSPPFLILFPWTPILLARFYCIGWWVRFGFIFVRLWP — higher, 63200
- TATARVRAVGENQKLEIVLGESDGTEEECQCGRRNKNANVKKYVQGVRAGIHY — lower, 35000
- MRFSSLLFLFCLFHFPLFFFFFSSFFNFCLPILFLPNLFSPFLFPFSPHLFFF — higher, 51900
- GPSSSSSLSSSAGMPGTFVLNLGRYGGYYVIHMPVGAQRVLGLVLRRWKTLLF — higher, 60500
- LLTFNLEVKRIWTLRWKLPKYLFVLNRYILPPFLFFEAFSNITYNLGKHVSRI — higher, 50800
- MPLLPRWRGKACKVVILAQFDHRYYIHGTLKRLTDVVAWLKAWWICVFWLGSR — higher, 61300
- ISLCLLHCVIMVFGLGLQLLVPSIYTRIEHVSYESTWNFAYYCAGWFMLKVCI — lower, 38100
- FFLALSFRDALAATSMMNLNNCMADPLLGKWVCQLLPSLTSILMFTVELVLFF — higher, 63800
- FVARLFQSLRRWWDSGLTTHLINASLFFISDGGKYFMGILCYFFQHLWRHHGM — lower, 47900
- GLFRVAGRVLHVNRLNDDFDAGADYDLRKATPADLDPHVVASVLKSYLRTLRG — lower, 27100
- EPEQVEAVVEVEEKQEEVKPVEEEIKVEQPVVEQQQEEPTPVVSQVPASTPLP — lower, < 6570
- LLGVLTLLLLYCNVVLITYHVPTWSRPLDIAFIHAPVRLFFILPLSLLFPYSL — higher, 56100
- SSATDSNPNTNLEDSLFFDHDLLSSSITNTNNGQGSNNGRQASKDDTLNLLDT — lower, 37900
- IMTKSEQQIVKCVKLMLSSSEKRYRLFNDSFSVIIFRIVDMNYGLRLLNLIID — higher, 56100
- MLYSFRLLFILFFFLLEALSICRRCNVTGRGCFRDWDCWNACHQYAVSPRWGI — lower, 41900
- APPPPPPPPPPAPPARSGAPPPPPPPPPPPMGGAPPPPPPPMGGPPPPPPPPP — lower, 36400
- RVPPNSSQKTGEPSSSSTKPVASSAVRNRVPPNSSQKTGEPSSSSTKPVASSA — higher, 52900
- QRKLLWMCVHNIESLVCLGTGRGISSKITDNMLGMLISTKIFNLAEAGLRLEI — higher, 67000
- MFSYFVFLLTIVTFFHLIISFCFVFRCHYIVLLLLLQNVFIFCLFAHHCYIHV — lower, 31400
- QAARTSDYSIAQFRFLLKLLLVHGRWNYVRICKYTLGTFWKEMLFYSVQALYQ — lower, 15400
- KQYCVRPNSGRIDPGKEVEVQVLLQAMKEDPPLDAKCRDKFLVQSVAVSADKE — higher, 64500
- EGGRQRERAGGAGGEDSKGEGRREERREEGKGGKGSAEERESREGSARGGEAG — lower, 10200
- GTGEEEEETTKHIVRKRGGGRGGRGKQESEQEWESEEEEEGTGEEEETTKQRT — lower, 39000
- RLPNNANSTTGLNDNDYNLDDTNNDNTNSMQSILEDFVSSEEALKFMPDAGRD — lower, 30400
- MPRHLYLIYILYILMTWGLYLILLQVIFIITMLMIFIYPFSIYLFKFQHIRSL — lower, 49500
- CMLRFVIWLCSKCVPYRSGVWEEFKFLLDHPRRCFTLLFPSSANWWLFWVLIL — higher, 59700
- HGAPPPPPPPPPPPPPVAGGPPPPPPPPPPGGAPPPPPPPPPPGGGGSAPLPA — lower, 44500
- NADGMDGEKFYKSIDSAYGFANSSLVHLLLHDQKLLMRLRYLRRLFFGAESDW — lower, 48800
- NQQPVFRAKYLLRQLFHLCNRTEHELRTLWTPAMVVLVARRLFDSIHPALGSL — higher, 58300
- MSLICIYQTIGTFAQICSWYFEMVHAGLSGSDIAQLARSNVNRIWWYKLLFTT — lower, 44500
- MLFLMCSLFFFVVFFLWSFFCGLLSLWCICYDISVGAWLTFGLLLVLWLLCIC — lower, 23900
- KSKQKERERKRARAKANEKAKAEARKRKTKDGEKKEKRKQKEREKAKGKGKER — higher, 55000
- EEEEDAETPAQESEEEKAASEPSSPPVVQQIPRKKRLGRPPKNRPPDWNAVEP — lower, 37600
- MLIFYFYFYFYFYLNFFYFFSFVSGWFVLGKDVFVLFLFPFSLSGFSYFVFGY — lower, 46700
- GEEDAEEEAKPKKGGKRKAEPVKEEDDEPEEAPAKPKRGRKSAKEQVKEEIKE — lower, 42700
- EAPKPAPEQPKPKPVQEKPAAPAAETKEKGKAAPEPEAEDKKPARRPRKAKQP — lower, 8950
- MDPGLFLMVLLWLSLPLSIVPWNLPMNWCFQSCDTIRPYQARLSGFFLLLLFQ — lower, 48600
- MHSSGWLWANISLLFPRLFFLTFFSYLLCDLAFRFDRLVCFLWLLFFQWSFII — higher, 52200
- ITMCSVTSVGYLGIVRWLVICLGFQPYKLRCVTLVYLTHVMTFFCIIILGIFN — higher, 68800
- FVGPQLCRDDAWLHTSIQFTRNVGITRNLLRMLPAVVRPIVARLLPSYWRIYS — lower, 41700
- GHSGNNAHSHLQKPHGHAGKTRSEVGGRSGEGGEGNGGAGGGELGKGVAAGRL — lower, 13700
- QREARKEHIKSLVAPGLPFLSIDTYKDLNDKWVLKGVFRGLLVLRGLAHHLRT — higher, 63100
- YAEWLLQPEQHNGTWVADVLWPAINLDLQWISQHWNESSWDLWWSPVWAGSYW — higher, 66400
- ASLHCLRSSPSSSSPCAARERSSSRARTSSSMCPIAPTHKPRSSTGSPARGTP — lower, 19900
- YFMVYFIFYRNLFARLRSFDQFALVQLMSSFWVCIWYPFSMTSLCHRVVQYFN — higher, 69300
- ALAVMFAEAVALSWWVSALKGQTLECLHFQWEVGQSVLKILLKRRFWGWVCVA — lower, 46700
- KADDGGGDEAEKPKKATSKKPKKENDDAMDVDEEAQERPKPKPRPKPKPKAKE — lower, 22000
- MWCTRWVLPFLLLPAPTSPPYFVLIFLLSLVMHARPCIYCIFFLIMLFITSNY — lower, 47000
- EKRYGPMLDPKNPLHYMWQLVYNILSLKLHIMLLFRYASNMHRIMPERLRQTV — higher, 58300
- LVGDANGCRVLPAFQLWPLLSTFNLLYSISSTSWLLYWVFTSLCYPAIFLVCL — higher, 55700
